Measured values published in patent US20190328788A1 (GENAGON THERAPEUTICS, published 2019).
Ends that are not written are not given here.

target: T1, transforming growth factor-beta 3 (TGF-β3) (UniProt P10600 301-412); assay: ELISA, peptide on streptavidin plate, ligand 100 ng/ml
T1 construct: also called TGFb3; TGFB3
T1 sequence (looked up): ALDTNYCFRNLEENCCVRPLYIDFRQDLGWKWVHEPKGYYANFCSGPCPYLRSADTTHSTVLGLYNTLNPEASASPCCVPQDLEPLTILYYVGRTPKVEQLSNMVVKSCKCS
Protocol: (§1) Biotinylated synthetic peptide fragments from CLPTM1 (JPT peptides, Germany) were immobilized in a streptavidin 96 well plate (#15500 Pierce) at 1 μM in PBS over night at +4° C. Plate was then washed 4 times in 300 μl PBS with 0.05% tween-20 (wash buffer). The plate was then blocked with PBS 1% BSA and 0.05% tween-20 (blocking buffer) for 1.5 hours at room temperature, then washed 4 times in wash buffer. Ligands GDF15, TGFb1, TGFb2 and TGFb3 (Abcam) were added in blocking buffer at 100 ng/ml and incubated at room temperature for 2 hours. The plate was then washed 8 times in 300 μL wash buffer with 2× NaCl. An anti-GDF15 antibody was added at 1 μg/ml (R&D Systems, goat polyclonal) or a pan-specific anti-TGFb antibody (R&D Systems, mouse 1 D11), and the plate incubated in blocking buffer for 1 hour at room temperature followed by washing with 4×300 μl wash buffer. HAF017 anti-goat-HRP antibody (to detect the anti-GDF15 antibody) or Santa Cruz sc-2005 Goat anti-mouse-HRP (to detect the pan-specific anti-TGFb antibody) was added and the plate incubated for 1 hour in blocking buffer followed by a wash. TMB substrate was added and stopped after 15 minutes with H₂SO₄. OD 450-620 was measured in an ELISA reader.

Compared with KALYRRLATVHMSRMINKYKG (also: biotinylated, site not given here, also called peptide 10) [CLPTM1 peptide fragment of SEQ ID NO: 17], YPINESLASLPLRVSFCPLSG (also: biotinylated, site not given here, also called peptide 20) [CLPTM1 peptide fragment of SEQ ID NO: 27] is lower in “ELISA OD450” value: 0.046 OD450 for the first, 0.018 OD450 for the second.

Compared with LWRWQLYAAQSTKSPWNFLGG (also: biotinylated, site not given here) [CLPTM1 peptide fragment of SEQ ID NO: 26], GDYYPIIYFNDYWNLQKDYYG (also: biotinylated, site not given here, also called peptide 21) [CLPTM1 peptide fragment of SEQ ID NO: 28] is higher in “ELISA OD450” value: 0.011 OD450 for the first, 0.151 OD450 for the second.

Going from PLRVSFCPLSLWRWQLYAAQG (also: biotinylated, site not given here) [CLPTM1 peptide fragment of SEQ ID NO: 23] to RRRFQKTKNLLTGETEADPEG (also: biotinylated, site not given here) [CLPTM1 peptide fragment of SEQ ID NO: 18], the “ELISA OD450” value falls from 0.016 OD450 to 0.004 OD450.

First: YEQSDEEQDSVKVALLETNPG (also: biotinylated, site not given here) [CLPTM1 peptide fragment of SEQ ID NO: 25]
Second: SGQVTSNGSIGRDPPAETQPG (also: biotinylated, site not given here) [CLPTM1 peptide fragment of SEQ ID NO: 9]
The “ELISA OD450” value of the first is higher: 0.014 OD450 for the first, 0.001 OD450 for the second.

First: LDQYVKFDAVSGDYYPIIYFG (also: biotinylated, site not given here, also called peptide 14) [CLPTM1 peptide fragment of SEQ ID NO: 21]
Second: WQVIKGVLFRIFIIWAISSWG (also: biotinylated, site not given here) [CLPTM1 peptide fragment of SEQ ID NO: 29]
The “ELISA OD450” value of the first is higher: 0.065 OD450 for the first, 0.019 OD450 for the second.

target: T2, Growth and Differentiation Factor 15 (GDF15) (UniProt Q99988 197-308, limits assumed); assay: as above
T2 construct: also called MIC-1; MIC1
T2 sequence (looked up): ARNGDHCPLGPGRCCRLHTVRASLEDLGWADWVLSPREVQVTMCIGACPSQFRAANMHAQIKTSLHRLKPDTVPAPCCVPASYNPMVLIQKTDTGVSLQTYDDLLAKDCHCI
Protocol: as §1

Compared with KALYRRLATVHMSRMINKYKG (also: biotinylated, site not given here, also called peptide 10) [CLPTM1 peptide fragment of SEQ ID NO: 17], YPINESLASLPLRVSFCPLSG (also: biotinylated, site not given here, also called peptide 20) [CLPTM1 peptide fragment of SEQ ID NO: 27] is higher in “ELISA OD450” value: 0.197 OD450 for the first, 0.22 OD450 for the second.

Going from LWRWQLYAAQSTKSPWNFLGG (also: biotinylated, site not given here) [CLPTM1 peptide fragment of SEQ ID NO: 26] to GDYYPIIYFNDYWNLQKDYYG (also: biotinylated, site not given here, also called peptide 21) [CLPTM1 peptide fragment of SEQ ID NO: 28], the “ELISA OD450” value rises from 0.033 OD450 to 0.507 OD450.

First: PLRVSFCPLSLWRWQLYAAQG (also: biotinylated, site not given here) [CLPTM1 peptide fragment of SEQ ID NO: 23]
Second: RRRFQKTKNLLTGETEADPEG (also: biotinylated, site not given here) [CLPTM1 peptide fragment of SEQ ID NO: 18]
The “ELISA OD450” value of the first is higher: 0.063 OD450 for the first, 0.021 OD450 for the second.

Going from YEQSDEEQDSVKVALLETNPG (also: biotinylated, site not given here) [CLPTM1 peptide fragment of SEQ ID NO: 25] to SGQVTSNGSIGRDPPAETQPG (also: biotinylated, site not given here) [CLPTM1 peptide fragment of SEQ ID NO: 9], the “ELISA OD450” value falls from 0.022 OD450 to 0.009 OD450.

Going from LDQYVKFDAVSGDYYPIIYFG (also: biotinylated, site not given here, also called peptide 14) [CLPTM1 peptide fragment of SEQ ID NO: 21] to WQVIKGVLFRIFIIWAISSWG (also: biotinylated, site not given here) [CLPTM1 peptide fragment of SEQ ID NO: 29], the “ELISA OD450” value falls from 0.14 OD450 to 0.023 OD450.

target: T3, transforming growth factor-beta 1 (TGF-β1) (UniProt P01137 279-390); assay: as above
T3 construct: also called TGFb1; TGFB1
Protocol: as §1

T3 sequence (P01137 279-390 limits assumed): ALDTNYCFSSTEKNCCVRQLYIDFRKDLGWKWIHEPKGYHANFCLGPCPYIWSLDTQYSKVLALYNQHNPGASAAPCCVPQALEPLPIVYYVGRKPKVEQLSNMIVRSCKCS

Going from KALYRRLATVHMSRMINKYKG (also: biotinylated, site not given here, also called peptide 10) [CLPTM1 peptide fragment of SEQ ID NO: 17] to YPINESLASLPLRVSFCPLSG (also: biotinylated, site not given here, also called peptide 20) [CLPTM1 peptide fragment of SEQ ID NO: 27], the “ELISA OD450” value falls from 0.913 OD450 to 0.043 OD450.

Going from LWRWQLYAAQSTKSPWNFLGG (also: biotinylated, site not given here) [CLPTM1 peptide fragment of SEQ ID NO: 26] to GDYYPIIYFNDYWNLQKDYYG (also: biotinylated, site not given here, also called peptide 21) [CLPTM1 peptide fragment of SEQ ID NO: 28], the “ELISA OD450” value rises from 0.013 OD450 to 1.54 OD450.

First: PLRVSFCPLSLWRWQLYAAQG (also: biotinylated, site not given here) [CLPTM1 peptide fragment of SEQ ID NO: 23]
Second: RRRFQKTKNLLTGETEADPEG (also: biotinylated, site not given here) [CLPTM1 peptide fragment of SEQ ID NO: 18]
The “ELISA OD450” value of the first is higher: 0.083 OD450 for the first, 0.002 OD450 for the second.

Going from YEQSDEEQDSVKVALLETNPG (also: biotinylated, site not given here) [CLPTM1 peptide fragment of SEQ ID NO: 25] to SGQVTSNGSIGRDPPAETQPG (also: biotinylated, site not given here) [CLPTM1 peptide fragment of SEQ ID NO: 9], the “ELISA OD450” value falls from 0.01 OD450 to 0.002 OD450.

Going from LDQYVKFDAVSGDYYPIIYFG (also: biotinylated, site not given here, also called peptide 14) [CLPTM1 peptide fragment of SEQ ID NO: 21] to WQVIKGVLFRIFIIWAISSWG (also: biotinylated, site not given here) [CLPTM1 peptide fragment of SEQ ID NO: 29], the “ELISA OD450” value falls from 0.152 OD450 to 0.01 OD450.

target: T4, transforming growth factor-beta 2 (TGF-β2) (UniProt P61812 303-414); assay: as above
T4 construct: also called TGFb2; TGFB2
T4 sequence (looked up): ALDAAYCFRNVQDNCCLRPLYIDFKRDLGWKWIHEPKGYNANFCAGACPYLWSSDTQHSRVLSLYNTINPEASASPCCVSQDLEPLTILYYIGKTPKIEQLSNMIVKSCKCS
Protocol: as §1

First: KALYRRLATVHMSRMINKYKG (also: biotinylated, site not given here, also called peptide 10) [CLPTM1 peptide fragment of SEQ ID NO: 17]
Second: YPINESLASLPLRVSFCPLSG (also: biotinylated, site not given here, also called peptide 20) [CLPTM1 peptide fragment of SEQ ID NO: 27]
The “ELISA OD450” value of the first is higher: 1.01 OD450 for the first, 0.025 OD450 for the second.

Compared with LWRWQLYAAQSTKSPWNFLGG (also: biotinylated, site not given here) [CLPTM1 peptide fragment of SEQ ID NO: 26], GDYYPIIYFNDYWNLQKDYYG (also: biotinylated, site not given here, also called peptide 21) [CLPTM1 peptide fragment of SEQ ID NO: 28] is higher in “ELISA OD450” value: 0.008 OD450 for the first, 0.164 OD450 for the second.

First: PLRVSFCPLSLWRWQLYAAQG (also: biotinylated, site not given here) [CLPTM1 peptide fragment of SEQ ID NO: 23]
Second: RRRFQKTKNLLTGETEADPEG (also: biotinylated, site not given here) [CLPTM1 peptide fragment of SEQ ID NO: 18]
The “ELISA OD450” value of the first is higher: 0.066 OD450 for the first, 0.002 OD450 for the second.

Compared with YEQSDEEQDSVKVALLETNPG (also: biotinylated, site not given here) [CLPTM1 peptide fragment of SEQ ID NO: 25], SGQVTSNGSIGRDPPAETQPG (also: biotinylated, site not given here) [CLPTM1 peptide fragment of SEQ ID NO: 9] is lower in “ELISA OD450” value: 0.007 OD450 for the first, 0.001 OD450 for the second.

First: LDQYVKFDAVSGDYYPIIYFG (also: biotinylated, site not given here, also called peptide 14) [CLPTM1 peptide fragment of SEQ ID NO: 21]
Second: WQVIKGVLFRIFIIWAISSWG (also: biotinylated, site not given here) [CLPTM1 peptide fragment of SEQ ID NO: 29]
The “ELISA OD450” value of the first is higher: 0.019 OD450 for the first, 0.006 OD450 for the second.
